Measured values published in patent publication US20190359687A1.

Columns and labels:
[1] = molecular target: Rhesus monkey glycophorin A on Rhesus monkey red blood cells (Rhesus monkey); assay: FACS, RBC Rh01
[2] = molecular target: Rhesus monkey glycophorin A on Rhesus monkey red blood cells (Rhesus monkey); assay: FACS, RBC Rh02
[3] = molecular target: Cynomolgus monkey glycophorin A on Cynomolgus monkey red blood cells (Cynomolgus monkey); assay: FACS, RBC Cy02
[4] = molecular target: Rhesus monkey glycophorin A on Rhesus monkey red blood cells (Rhesus monkey); assay: FACS, RBC Rh03
[5] = molecular target: Cynomolgus monkey glycophorin A on Cynomolgus monkey red blood cells (Cynomolgus monkey); assay: FACS, RBC Cy01
[6] = molecular target: endogenous Cynomolgus monkey FVIII in whole blood (Cynomolgus monkey); assay: cell-based or functional assay
endogenous Cynomolgus monkey FVIII in whole blood (Cynomolgus monkey), sequence (chain, as listed by the source): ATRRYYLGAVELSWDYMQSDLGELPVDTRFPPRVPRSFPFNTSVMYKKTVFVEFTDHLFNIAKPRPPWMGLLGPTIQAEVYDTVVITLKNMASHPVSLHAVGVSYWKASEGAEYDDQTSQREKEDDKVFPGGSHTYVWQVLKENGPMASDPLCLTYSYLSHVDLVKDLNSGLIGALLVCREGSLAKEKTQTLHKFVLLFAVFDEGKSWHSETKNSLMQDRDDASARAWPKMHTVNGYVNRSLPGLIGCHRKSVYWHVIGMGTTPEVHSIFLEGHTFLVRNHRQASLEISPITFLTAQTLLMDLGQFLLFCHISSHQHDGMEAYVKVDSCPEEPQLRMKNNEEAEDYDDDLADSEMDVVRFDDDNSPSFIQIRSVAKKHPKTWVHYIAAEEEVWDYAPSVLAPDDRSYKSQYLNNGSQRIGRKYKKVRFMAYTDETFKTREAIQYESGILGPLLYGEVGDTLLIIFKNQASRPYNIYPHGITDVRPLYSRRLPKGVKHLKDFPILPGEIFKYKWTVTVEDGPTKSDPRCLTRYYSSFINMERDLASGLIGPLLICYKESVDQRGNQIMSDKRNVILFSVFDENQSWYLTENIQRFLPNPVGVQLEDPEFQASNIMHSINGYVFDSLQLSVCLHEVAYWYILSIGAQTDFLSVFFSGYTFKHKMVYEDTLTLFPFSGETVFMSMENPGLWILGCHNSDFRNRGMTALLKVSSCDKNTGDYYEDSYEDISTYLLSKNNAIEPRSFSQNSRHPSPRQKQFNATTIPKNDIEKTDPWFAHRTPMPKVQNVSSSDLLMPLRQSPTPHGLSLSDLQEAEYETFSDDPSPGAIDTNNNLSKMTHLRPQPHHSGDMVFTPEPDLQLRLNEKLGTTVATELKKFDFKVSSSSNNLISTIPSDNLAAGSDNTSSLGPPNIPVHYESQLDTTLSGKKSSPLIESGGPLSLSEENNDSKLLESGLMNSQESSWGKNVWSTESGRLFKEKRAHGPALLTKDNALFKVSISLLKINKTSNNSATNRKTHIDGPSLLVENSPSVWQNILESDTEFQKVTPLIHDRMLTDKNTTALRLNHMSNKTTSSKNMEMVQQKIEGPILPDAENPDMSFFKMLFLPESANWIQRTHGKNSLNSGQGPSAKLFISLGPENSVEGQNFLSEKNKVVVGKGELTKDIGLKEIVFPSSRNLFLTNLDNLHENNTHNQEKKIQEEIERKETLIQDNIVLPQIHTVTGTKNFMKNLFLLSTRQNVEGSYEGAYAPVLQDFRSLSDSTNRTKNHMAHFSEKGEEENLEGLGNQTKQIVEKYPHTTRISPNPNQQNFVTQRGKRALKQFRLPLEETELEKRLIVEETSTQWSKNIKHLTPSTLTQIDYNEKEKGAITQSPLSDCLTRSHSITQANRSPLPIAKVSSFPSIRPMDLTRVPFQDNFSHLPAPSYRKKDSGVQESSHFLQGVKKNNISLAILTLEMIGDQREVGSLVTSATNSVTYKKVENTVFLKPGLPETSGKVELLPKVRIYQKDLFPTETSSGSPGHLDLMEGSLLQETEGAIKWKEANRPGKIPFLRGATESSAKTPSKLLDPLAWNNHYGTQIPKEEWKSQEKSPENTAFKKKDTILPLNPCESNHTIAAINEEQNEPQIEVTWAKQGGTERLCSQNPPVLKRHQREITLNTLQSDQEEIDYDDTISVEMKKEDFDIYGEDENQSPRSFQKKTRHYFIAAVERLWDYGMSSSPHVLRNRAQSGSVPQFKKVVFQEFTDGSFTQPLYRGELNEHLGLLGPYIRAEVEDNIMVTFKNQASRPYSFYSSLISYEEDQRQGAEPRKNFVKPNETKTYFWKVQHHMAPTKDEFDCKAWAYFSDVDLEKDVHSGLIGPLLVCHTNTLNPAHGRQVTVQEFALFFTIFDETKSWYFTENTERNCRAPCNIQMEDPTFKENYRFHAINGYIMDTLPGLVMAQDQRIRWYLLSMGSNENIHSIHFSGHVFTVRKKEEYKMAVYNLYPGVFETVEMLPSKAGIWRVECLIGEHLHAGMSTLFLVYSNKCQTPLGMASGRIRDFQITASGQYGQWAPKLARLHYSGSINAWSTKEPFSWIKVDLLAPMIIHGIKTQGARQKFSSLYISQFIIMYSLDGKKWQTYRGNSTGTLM

Rhesus monkey glycophorin A on Rhesus monkey red blood cells (Rhesus monkey), sequence (chain, as listed by the source, form in doubt): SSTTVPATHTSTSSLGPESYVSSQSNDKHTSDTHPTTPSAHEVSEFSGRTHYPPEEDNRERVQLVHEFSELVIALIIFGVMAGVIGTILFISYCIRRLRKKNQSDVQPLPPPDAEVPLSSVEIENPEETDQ

fluorescence intensity [1]	fluorescence intensity [2]	fluorescence intensity [3]	fluorescence intensity [4]	fluorescence intensity [5]	Hemochron aPTT clotting time, Cyno whole blood [6]	Substance
2	2	3	2	2	–	Hu igG isotype (antibody)
–	–	–	–	–	180 s	anti-FVIII neutralizing monoclonal antibody BO2C11
